Reference: patent publication US20050136044A1, “Butyrylcholinesterase variants that alter the activity of chemotherapeutic agents” (priority 2003, published 2005)
Residue numbers refer to the chain shown, from its start.

Key:
[1] = cited from earlier work
[2] = in vitro; Pavillard et al. 2002; cited from earlier work
[3] = CPT-11 conversion to SN-38, fluorescent HPLC detection, conditioned media of transiently expressed BChE variants; format: biochemical; conditions: for CPT-11 conversion to SN-38 (SN-38 formation by HPLC), in words: 20 mM CPT-11, 72 hours, 37° C., versus mock / wild-type
Description: Butyrylcholinesterase variants were assayed for CPT-11 conversion activity using fluorescent High Performance Liquid Chromotography (HPLC) detection of SN-38 formation as described in Dodds and Rivory, Mol. Pharmacol. 56: 1346-1353 (1999), which is incorporated herein by reference. Briefly, conditioned media from transiently expressed BChE variants were exposed to 20 mM CPT-11 for 72 hours at 37° C. and analyzed by HPLC for SN-38 formation (peak at about 4 minutes column retention time).

[4] = test system: SW48 colon carcinoma cells; experiment: MTT cytotoxicity assay of CPT-11 activated by BChE variants; conditions: CPT-11 at 4 mM incubated 72 hours with enzyme, cells exposed at 0.5 mM for 72 hours, versus mock
Description: Clinically relevant concentrations of CPT-11 (0.5-10 mM) were exposed to BChE variants for 24-72 hours at 37° C. Briefly, CPT-11 at 4 mM was incubated for 72 hours with expressed wild-type BChE, the 6-6 variant, or F227A/L286Q variant. SW48 colon carcinoma cells were exposed to the activated CPT-11 at a concentration of 0.5 mM for 72 hours and cell viability measured by the MTT method. The MTT (3-(4,5-dimethylthiazolyl-2)-2,5-diphenyltetrazolium bromide) assay is commercially available and can be used to measure cell viability based on the ability of a cell to reduce a redox sensitive dye. Note the 6-6 variant is a quadruple mutant referenced as A328W/Y332M/S287G/F227A (SEQ ID NO: 16) in the nomenclature used throughout to describe variants. The 6-6 variant contains the following codons at variant positions: GCG encodes alanine at amino acid position 227, GGT encodes glycine at amino acid position 287, ATG encodes methionine at amino acid position 332, and TGG encodes tryptophane at amino acid position 328.

[5] = o-nitrophenyl acetate (o-NPA) hydrolysis assay of antibody-captured butyrylcholinesterase variants (carboxylesterase activity); format: biochemical; conditions: antibody capture/normalization, absorbance 405 nm
Description: A modification of this assay that measures o-NPA activity of butyrylcholinesterase variants normalized by capturing with an anti-butyrylcholinesterase antibody was performed as described below.
Protocol to Determine Carboxylesterase activity of Captured Butyrylcholinesterase by o-Nitrophenyl acetate: • 1) Coat 96-well Immulon 2 plates with rabbit anti-human butyrylcholinesterase (Dako #A0032) at 10 mg/ml in PBS (100 ml/well) overnight at 4° C. • 2) Remove coating solution and block plate with 3% BSA in PBS (250 ml/well) for 2 hours at room temperature. • 3) Add 200 ml butyrylcholinesterase variant conditioned media and incubate at RT for 2 hrs. • 4) Wash plate 3 times with 250 ml/well PBS. • 5) Add 85 ml/well 0.1 M potassium phosphate pH 7.0 • 6) Add 13.6 mg o-NPA to 100 ml acetonitrile, mix to dissolve. Add 100 ml of this stock to 6.3 mls water and mix well. • 7) Wash plate 3 times with PBS. • 8) Add 15 ml of diluted o-NPA substrate. • 9) Read absorbance at 405 nm.
Conditioned media from butyrylcholinesterase variants that were transiently expressed in 293T cells was tested using the above described anti-butyrylcholinesterase antibody capture/normalization assay for carboxylesterase activity. […] The first variant shown in FIG. 1 is F227A (see left-most bar). The level of activity of the other variants can be compared to the level of activity of F227A. […]

[6] = BChE-mediated CPT-11 hydrolysis, SN38 quantitated by reverse-phase HPLC with fluorescence detection; Km by Hofstee plot; format: biochemical; conditions: 37° C., 24 hours, CPT-11 1-80 μM, Hofstee plot
Description: BChE plasmid variants were expressed transiently in the human embryonic kidney cell line 293T and assayed for activity at 72 hours post-transfection. Primary screening of variants was performed by indirect measurement of enzymatic activation of CPT-11 (FIG. 2) in SW48 colon carcinoma cell cytotoxicity assays. […] Functional hits identified in these assays were characterized by sequence analysis of the corresponding DNA from the original preps. […] Enzyme was incubated at 37° C. for 24 hours with CPT-11 over a range of concentrations from 1-80 μM. […] Velocity (v) is in light absorbance units at 540 nm. Substrate concentration [s] is μM CPT-11.
Samples were acidified and resolved by reverse-phase HPLC on a NovaPak C18 column to separate SN38 from unactivated CPT-11. SN38 peak area under the curve (AUC) was used to compare CPT-11 activation by the wild-type enzyme to the optimized BChE.4-1 variant.

[7] = biological target: T1, CD20 (human, UniProt P11836 1-297); experiment: method not stated
T1 construct: whole, on cells; also called CD20 cell surface antigen; CD20 on SKW 6.4 human B lymphoma cells
T1 sequence (looked up): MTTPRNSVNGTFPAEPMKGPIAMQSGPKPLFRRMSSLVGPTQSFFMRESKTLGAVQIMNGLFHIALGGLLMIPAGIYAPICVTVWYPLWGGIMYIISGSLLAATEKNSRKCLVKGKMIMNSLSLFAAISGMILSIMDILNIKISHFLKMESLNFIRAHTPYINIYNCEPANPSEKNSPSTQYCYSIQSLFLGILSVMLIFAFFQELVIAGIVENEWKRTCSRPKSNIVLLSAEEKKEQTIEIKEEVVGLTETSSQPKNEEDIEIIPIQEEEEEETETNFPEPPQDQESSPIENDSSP

## CCc1c2c(nc3ccc(OC(=O)N4CCC(N5CCCCC5)CC4)cc13)-c1cc3c(c(=O)n1C2)COC(=O)[C@]3(O)CC [CPT-11, 7-ethyl-10-[4-(1-piperidino)-1-piperidine]carbonyloxycamptothecin]
[1]; patients treated with 200 mg/m2 CPT-11, for at least 24 hours, Ducreux et al. 2003
  plasma concentrations of CPT-11: above 0.1 μM
[1]; single agent at up to 500 mg/m^2
  plasma peak concentration versus dose: dose-proportional

## CCc1c2c(nc3ccc(O)cc13)-c1cc3c(c(=O)n1C2)COC(=O)[C@]3(O)CC [SN38, 7-ethyl-10-hydroxycamptothecin]
[2]
  cytotoxicity relative to CPT-11: greater than 1000 fold

## F227A/L286Q
[3]; compared to wild-type butyrylcholinesterase, conditioned media exposed to 20 mM CPT-11 for 72 hours at 37° C., SN-38 by HPLC, conservative values
  Fold improvement in CPT-11 conversion: >10 fold
[3]; conditioned media
  CPT-11 conversion to SN-38 (SN-38 formation by HPLC), in words: increased CPT-11 conversion to SN-38
[4]
  CPT-11 mediated cytotoxicity in SW48 colon carcinoma cells: increased tumor cell cytotoxicity

B1: wild-type butyrylcholinesterase (protein, UniProt P06276 29-602, looked up)
Cholinesterase: EDDIIIATKNGKVRGMNLTVFGGTVTAFLGIPYAQPPLGRLRFKKPQSLTKWSDIWNATKYANSCCQNIDQSFPGFHGSEMWNPNTDLSEDCLYLNVWIPAPKPKNATVLIWIYGGGFQTGTSSLHVYDGKFLARVERVIVVSMNYRVGALGFLALPGNPEAPGNMGLFDQQLALQWVQKNIAAFGGNPKSVTLFGESAGAASVSLHLLSPGSHSLFTRAILQSGSFNAPWAVTSLYEARNRTLNLAKLTGCSRENETEIIKCLRNKDPQEILLNEAFVVPYGTPLSVNFGPTVDGDFLTDMPDILLELGQFKKTQILVGVNKDEGTAFLVYGAPGFSKDNNSIITRKEFQEGLKIFFPGVSEFGKESILFHYTDWVDDQRPENYREALGDVVGDYNFICPALEFTKKFSEWGNNAFFYYFEHRSSKLPWPEWMGVMHGYEIEFVFGLPLERRDNYTKAEEILSRSIVKRWANFAKYGNPNETQNNSTSWPVFKSTEQKYLTLNTESTRIMTKLRAQQCRFWTSFFPKVLEMTGNIDEAEWEWKAGFHRWNNYMMDWKNQFNDYTSKKESCVGL
[3]; HPLC assay, conditioned media
  conversion of CPT-11: less than 1%
[3]; conditioned media
  CPT-11 conversion to SN-38 (SN-38 formation by HPLC), in words: did not show detectable levels of SN-38
[5]
  level of carboxylesterase activity relative to F227A: approximately 50%
[4]
  CPT-11 mediated cytotoxicity in SW48 colon carcinoma cells: significantly enhanced
[6]
  Km: 40 µM

B2: 6-6 variant (protein)
chain: B1 Cholinesterase with F227A, S287G, A328W, Y332M
modifications: synthetic butyrylcholinesterase variant
[4]
  CPT-11 mediated cytotoxicity in SW48 colon carcinoma cells: increased tumor cell cytotoxicity

B3: AME133 Fab (humanized anti-CD20 with fully human germline framework regions) (Fab, V domains shown)
VH: EVQLVQSGAEVKKPGESLKISCKGSGRTFTSYNMHWVRQMPGKGLEWMGAIYPLTGDTSYNQKSKLQVTISADKSISTAYLQWSSLKASDTAMYYCARSTYVGGDWQFDVWGKGTTVTVSS
VL: EIVLTQSPGTLSLSPGERATLSCRASSSVPYIHWYQQKPGQAPRLLIYATSALASGIPDRFSGSGSGTDFTLTISRLEPEDFAVYYCQQWLSNPPTFGQGTKLEIKR
notes: also called monovalent Fab
[7]
  Kd: 1 nM
